# Experimental data as given in a protein production outcome set (Wang et al. 2014).
# Assay: label from the status in PepcDB records
row,Sequence,protein production
1,MDLLEYQVKEWFGEIGIPVLPSQRIDHPTDLKRLKIRYPIVLKSQVHAGEREKVGGVRMVETTIDAIAAAQTIFNLSIWGELPEVLLAESKYNSHQEFYLAVVLDTAVCRPVLLGSTEADIDLELADQKMQYVVVEQEFSPFYARRLALKMGLQGTLMQSVSTVLEKMYQLFVQKDLDLVEINPLGVNLAGEVMALNGKVGVNERAIGRHPEIAAMAAKIIPRHYDKSFSNGRDWNNLEKQRRIGILGNGTGSILATYDLVASGGGKPGICLNLRHAAITDLSPTKFGDRLTKGLNTLAADKNTQVILINLLGSIPQPEEAAQAIAQFIQQNKGEYPPSIAKSNGKNLSQHQSPQLVIRLAGSELNAAKEVLAALQTHEEGLILVEDLDEAVATAVRLTKSHAYKKVS,failed
2,MDLLLKGGWVVTQERVEQADIAVEGEKIAAIGPDLEARAAAVRDVTGKYILPGAIDAHVHYQMPIGELLTADDWFTGTRLAACGGVTTVIDYAEPAGPAEPLTEALAKRLEEAREQACVDYGLHQVVLPGQEEDTGELAKVIEQGVTSFKVFTTYKQCLGYAAIGRLLKQARRLGALVTVHCEDHDLVTARRRELEATGQTDPAYHANSRPAAAEVKAIEKVIRQAAAAGAPVYIVHVSTGGGAELIAAARARGQQVFGETCPHYLLLTEERYAGPDSRLFLMCPPLRTVKDNRILWQHLASGDLQVVATDHCSYSPEQKAAGTAFYNTPSGVPGTETLLPLLYSYGVRQGRLTLPQMVRVLATNPARLFGLYPRKGCLAPGSDADLVVFDPSQEVILKASDLHSAAAYTIFEGFALQGYVEATYLRGRLIYDLGRFLGRAGQGEFIPGKITVL,failed
3,MDLLRGSDYVGDGAWFRAEALQEIGAFAEAPDADSYDALLRIHDRYGAMVIGHIPDMLLHAPSRGTADGSGQRAALDAHLARNGGGADIEAGPAAGTRRIRYPAPEQARLSIIVADAGDGFHLSPCIDALQASLGGCACEILAIAADGEPGDAAKLLRCDPGLGLAARFQLGAEAASGDFLLFIDSRVELAQPDGLQALLGLAARPEVGAAAPRLLRPDGEALWRGPLLIGAGEGAAALFCDAGASEAGHLNRQAVEHNPGALRLECLLMAKAFYQQIGGMDASLPTLLDTAVDLGLRIRAAGRLPVWTPFVSARRHGALDVSEPPETCDADALSLRWNGWLGQDPAHNRHLSLAADKAFQIEDVYSAQWDASFHERTRVLALPAESKATEARMASPFRILQEDCQCQLTQIPAGQRLPSAGEIERMAPDALLMSARFDSASLAWLRGYRQRRPDVLAVLMLDKLDFGAGTTHRYGHSLLQAMAGMADRVIVPTESLYRMALAFADDVRLVPDGLEEARWFELQSLRRVGKKPRVGWVGSAAEAPDLLMLSGIILATAAELDWIVLGDCPEVLKPCLAEYHAFDLSSDDYPTRLASLSLDMAVMPKAATLANETGSPLRMFEFGALGVPVICSAVGELGLSPAPVARVENDVSSWGEALRELARDAAAAAQAGDGLRAWVRENCGLKRHLPLWQQAISR,failed
4,MDLNRMGKDEYYVQITVDGKEVHSKADNGQKYKDYEYKLTGFDKDGKEKELEFTAQKNLRKEAFLRVYHSDKKGVSAWEEVKKDELPAKVKEKLGVKLEHHHHHH,not failed
5,MDLPVMPPVKPMLAKSVAKIPPDMQYEAKWDGFRAIVFRDGTEVELGSRTGKPLTRYFPELVEALRDRLPERCVIDGEIVIARDGRLDFDALTERIHPAESRVRMLAEKTPASFVAFDLLALADDSLLDTPLTERRALLESALSGVTAPVHVAPATTDREVAEQWFEQYEGAGLDGVIAKPLTLRYRQDERAMFKVKHERTADVVVAGYRLHKSGPVVGSLLLGLYDDRGALQHVGVSAAFPMKRRAELVEELEPLRMEDAAGHPWAAWSNEAAHETARLPGAPSRWSGKKDLSWVPLRPERVAEVAYDHMENGARFRHTARFRRWRPDRTPESCTYAQLEEPVSYDLTEILGSRGLEHHHHHH,not failed
6,MDLRAIAMGLAFAFMWSSAFSSARIIVADASPLFSLACRFLISGLLGVIIARAMGQTWRLTRNQWKATIVFGICQNALYLGLNFYAMQTVEASVAAIIASTMPLLVALASWGLFGERLPALGIAGLLAGFLGVALIMGARIGAGVDLFGVLLCGLGALALAAATLALRGATSGGNFMMVVGLQMLVGSAVLFLATPIFETVHVTPTLPLALAFAYTTLVPGLTATFVWVLLLNRIGAIRAATFHFLNPVFGVAIAAALLGERLGALDAIGVAITTAGILAVQLSRQASARKP,failed
7,MDLWDRFCVNLHTRKITLEDESQKRSMDLRLLHGVAYGHSWFGKWGYRFCSGSFGVEEHHYHRAIAFLTSISLVDDITANFRENKANLNIGDIVRCYRDMSEIQLTTLQDLLRFMLTIKSRAPPIRIPIGKIEAPSVVLPSMKAYGTRACPQVKQCPKDKEKSVKCRKFALPLPLQACFHFPFRSSMTLLSGSFRS,not failed
8,MDMDEKDVVETEEESFAELFEKSNSETQRLRPGSKVEGKILKIGAEWVFIDIGKKGEGVMERKELQDAEGNLTVAEGDTITAWFTGSVRNEMRFTTKLGAGAAANAQLEEAHRSGIPVEGFVVKEIKGGFEVRLSGTTRAFCPFSQISLRRAENPAEFVGKHLLFKVTEYSERGRNIVLSHRQILEEEQRVKREALKEVLLEGMTVTGTVTRLADFGAFVDLGGVDGLIPVSEVGWTRVKHVRDVLSVGEQVSVVIKKIDWEAGKISLSLKDTLADPWTTVAEQFPEGSYHTGTVARLAAFGAFVTLAPGIDGLIHISKLGKGKRINHPSDVLKEGETVEVKVDGVDREARRLSLALAEVSRAAEEEEKSVASFRQQATSSSKESMGSFGDLLKAKIEEKRLEHHHHHH,failed
9,MDMFGVAVLIFLVTDPFGNIAVFLAALKGVAPGRRLRVAFRELAFALGLLLLFLTLGEHILSGLGLSREATGIAGGIILFVIAMRLIFPSPQGLLGEVPDGEPLLVPLATPAVAGPSALAMLITLRTTFDGPLWELYLAVVLAWAATALILLQAAFLQRFLGPRGLTAIERLAGMLLIMLSVDMLLDNLRSVLHIAA,failed
10,MDMKKYILSLSLLTVINSSAIATTQEGEEAYNKGYYEKAFILLSPEADKGDAKAQYLLGKMYYNAQGVTYNPEKTEQLLLASANQGNVDAQVLLAGFYWYLNTPEGYKKAFEWYQKAADQNNADGQYGLGYMYDTGTGVPQNSDTAMVWYKKAAEQGNSNAALAIGYNYDTGTGVKKDKTQALNWYAKAADLGNASAQYNLGLMYEQGDGVPKDYQKAAEYFEKAANQGHAKSQLELGYLYDSGKLGKSDLQKAAFWYQKSADLGNANAQFNLADMYFYGDGVGKSLEQSVYWMQKAAEQGYGKAQNQLGIYYRDGIGVAADPVKAYAWFTAAKNNGFEKAASNASDLEKSMNPEDLSKARILGQQYTDNYKAKK,failed
11,MDMKRRIHLELRNRTPAAVRELVLDNCKSNDGKIEGLTAEFVNLEFLSLINVGLISVSNLPKLPKLKKLELSENRIFGGLDMLAEKLPNLTHLNLSGNKLKDISTLEPLKKLECLKSLDLFNCEVTNLNDYRESVFKLLPQLTYLDGYDREDQEAPDSDAEVDGVDEEEEDEEGEDEEDEDDEDGEEEEFDEEDDEDEDVEGDEDDDEVSEEEEEFGLDEEDEDEDEDEEEEEGGKGEKRKRETDDEGEDD,not failed
12,MDMKTKLQTIIGMFQITAWDETSYFESDNGAKLTQAVITQSYQGVLQGHSEIRYLMSYQDNANATFVGFEHFTGSLGDKKGSFILQHKGLFAAGVASSEFELVERSATGDFVHLVGKGHFVSTENGQANYQITLQDS,not failed
13,MDMTYYDHGTPAERWERARMFFDAKDYAAAARVLDGLVAQVPEQTGPRLLLARSYYHSAQLRRAEAELRVVVERDPVEHYARLMLGRTLERQGRQEEADAQLRIASALAGDFAEL,failed
14,MDMYSMKISEGVERIDGVTANSYLLTLDGKNILIDTGTAGGGKKIIDYFNKNGTKPDYVIVTHHHADHVGGLKEISERFNPEIYVPDLEMKIIRGEEDPPKPRSFFGRMITGMLKFEPVKDVKPVSKASIPGIEEMATPGHTIGSTSYIVEDLHILFSGDAAVESGGELKINKSFSYEINSAERSLEIIKGMKGYLVLPGHGDKVQLLEHHHHHH,not failed
15,MDNEEYYKILGVAKSASQDEIKHAYRKMSKKYHPDLNHQPGAEDKYKQVQEAYETLGDPQKRAAYDQYGKAGANANNGQGGFGGFQQSGFNFNGQDFGDFSDIFSQMFGGSFNPNAPRKGRDLQYRINLTFEEAVFGKETEIKYVRQESGGNSKEHTVKVTIPAGVETGQQMRLAGQGEAGTHGGPYGDLYVEFIVGKSKDGFERQGANIYLEEPINFVQAALGDKIKVKTVHGDVELTIPAGTQTDTEFRLRGKGAPYVNSSRIGDEYVKVIVQVPKRLNEKEKKALKTYADLRGENVNPQKRRGLFG,failed
16,MDNKVSILNQPKPFKMIFFIELWERFGYYGLQGILAVYFVDKLGFSMQDSFVTFGAFAALVYGLVSVGGYVGDYVLGTKRTMVFGAVVLALGYFLMGFSILNPNFIYLALGAIAVGNGLFKANPSSLLAKCYEKGDSRLDGAFTLYYMSINIGSLVSLSISPVIANNYGYEYAFVICGLGLIASLFSYFSLRSTVQGIGSEPDALPLNKTKALIVLIGTVASTLVCAWLLQNIMMANLALGLIGVGVVGFFLKETFKETGEQRNKMIVAFILMLQAIIFYVLYAQMPTSLNFFAINNVHSELFGIDINPVSLQALNPFWVIFCSPILAYLYTYYGNQNKDLSMPGKFTVGMFMCAFGFLSVAAAGNWFADQAGMVSVWWMILVYLFQSLGELMISGLGLAMVASLVPQRLMGFTMGAWFLTQAASFIIGGYVATFSATPEHLTAPLDTLPVYTELFQNIGFVTLAVAIVMAFTAPKLNKMMTSSQPEDAELVEQP,failed
17,MDNLFTPSAKSVLVLAQEQAKYFKHQAVGTEHLLLALAIEKNGIANKVLQQYAVSEDDIREEIERFTGYGTLSNVGKDTYLPYSPKAKEILSVAGDEAKRLGANKIGTEHLLLAMLSDESILSSRILMNLNLDLGQTRKVVLRKLG,failed
18,MDNMAIADRRRLRRKLTFWRVAAVLLLVVGAFGLYRFFWQGPQQSAKPHIARIEVSGLITDNTELLERLDKIAKSDNVKGLIVSISSPGGTTYGGERIFKVIRSVAEKKPVVSDVRTLAASAGYMIASAGDVIVAGETSITGSIGVIFQYPQLGQLMEKLGVSLQEIKSSPMKAEPSPFHEAPEEAKTMIRAMVMDSYGWFVDLVADRRKLPREEVLKLADGSIFTGRQALANKLVDTLGGEKEVRAYFETRGVAKDLPIVEWRAPSSNSPFALFSVAQIAKLLGYDDLIPFAGPSQLGADKLFLDGLVSVWQVEPRLEHHHHHH,not failed
19,MDNSGKEAEAMALLAEAERKVKNSQSFFSGLFGGSSKIEEACEIYARAANMFKMAKNWSAAGNAFCQAAQLHLQLQSKHDAATCFVDAGNAFKKADPQEAINCLMRAIEIYTDMGRFTIAAKHHISIAEIYETELVDIEKAIAHYEQSADYYKGEESNSSANKCLLKVAGYAALLEQYQKAIDIYEQVGTNAMDSPLLKYSAKDYFFKAALCHFCIDMLNAKLAVQKYEELFPAFSDSRECKLMKKLLEAHEEQNVDSYTESVKEYDSISRLDQWLTTMLLRIKKTIQGDEEDLR,not failed
20,MDNWQDITDDRLVRPIHPGEVIADILDDLDINTANFAEILGVSNQTIQEVINGQRSITVDIAIRLGKALGNGPRLWLNLQQKVDLWYALQSHKEEYEQVMTLV,not failed
21,MDPEEEAFDAIRRFARAENINAASVTAIGAFATATLAFFDLKTQDYQEIPVAEQSEVLTLLGDITLDENGVPNPHLHVVLGFADGSTRGGHFLKGLVRPTLEVVIRETPAELRRSYNREFGIALIDPAKLEHHHHHH,not failed
